The source of these data is the nanobody polyreactivity screen of Harvey et al. (2022).

The nature of the series: yeast display, Sf9 membrane polyspecificity reagent, FACS + sequencing; frameworks hold sequencing errors. The essentials: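 After 36–48 hours of galactose induction, yeast (Saccharomyces cerevisiae BJ5465) displaying a synthetic nanobody library were stained at 4 °C for 1 hour with 10% biotinylated, detergent-solubilized Sf9 membrane reagent. Streptavidin microbeads enriched the stained cells before FACS sorting into low and high (top ~1%) gates on anti-HA and streptavidin fluorescence. Each clone's polyreactivity label reflects its gate of origin.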
Regarding “QVQLVESGGVLVQAGGSLRLSCAPSGRIFNYYAMGWYRQAPGKERELVAAISSSGGRTYYADSVKGRFTISRDNAKNTVYLQMNSLKPEDTAVYYCAAYDSLRYSTYDYWGQGTQVTVSS”, the “polyreactivity (PSR sort gate)” value was “high polyreactivity”.
Then “QVQLVESGGGLVQAGGSLRLSCAASGSIIYLYTMGWYRQAPGKERELVAAISSSGSSTYYADSVKGRFTISRDNAKNTVYLQMNSLKPEYTSVYYCAARYSYDSYYWGKGTQVTVSS”, with “high polyreactivity”; and “QVQLVQSGGGLVQAGGSLSLICAASGRIFGYYAMGWYRQAPGKERELVDTITFGGGSTYYADSVKGRFTISRDNAKNTVYLQMNSLKPEDTAVYYCAADCGYLGIYGDEYSWGQGTQVTVSS”, with “low polyreactivity”; and “QVQLVESGGGLVQAGGSLRLSCAASGFTFPYNAMGWYRQAPGKERELVAAISSTGGITYYADSVKGRFTISRDNEKNTVYLQMNSLKPEDTAVYYCNAGYPDYDWTWWHISYDYWGQGTQVTVSS”, with “low polyreactivity”.
With “QVQLVESGGGLVQAGGSLRLSCAASGFTFQENAMGWYRQAPGKERELVAAISYGGGSTYYADSVKGRFTISRDNAKNTVYLQMNSLKPEDTAVYYCAADGGSAYAWYFAELYGYWGQGTQVTVSS”, the “polyreactivity (PSR sort gate)” value is “low polyreactivity”.
Consider “QVQLVESGGGLVQAGGSLRLSCAASGSTLHSYAMGWYRQAPGKERELVAALSFRGGSTYADSVKGRFTISRDNAKNTVYLQMNSLKPEDTAVYYCATRSTRADWYIVGYDYWGQGTQVTVSS”, for which the “polyreactivity (PSR sort gate)” value was “low polyreactivity”.
Take “QVQLVDSRGGLVQAGGSLRLSCAASGFIFSRYAMGWSRQAPGKERELVAAISYRGGSTYYADSVKGRFTISRDNAKNPVYLQMNSLKPEDTAVYYCAASLRYYGLEMDYWGQGTQVTVSS”: the “polyreactivity (PSR sort gate)” value was “high polyreactivity”.
Take “QVQLVESGGGLVQAGGSLRLSCAASGRIFNEYAMGWYRQAPGKERELVAAITYSDDSTYYADSVKGRFTISRDNAKNTVYLQMNSLKPEDTAVYYCNADTPVWDGHAYPVDYWGQGTQVTVSS”: the “polyreactivity (PSR sort gate)” value is listed as “low polyreactivity”.
With “QVQLVESGGRLVQAGGSLRLSCAASGRTFGPYAIGRYRQAPGKERELVAAITDTGSGTYYADSVKGRFTISRDNAKNTVYLQMNSLKPEDTAVYYCNAVRKYWGQGTQVTVSS”, the “polyreactivity (PSR sort gate)” value is given as “low polyreactivity”.
As for “QEQLQESGGGLVQAGGSLRLSCAASGSIYDDTYMARYRQAPGKERELVATIDSGSTTNYADSVKGRITISRDNAKNTVYLQMNSLKPEDSAVYYCAAADSHIDYFDYWGQGTQVTVSS”, the “polyreactivity (PSR sort gate)” value is given as “low polyreactivity”.
Take “QVQLVESGGGLVQAGGSLRLSCAASGRIFGTNAMGWYRQAPGKERELVAAISRSGGSTYYADSVKGRFTISRDNSKNTVYLQMNSLKPEDTAVYYCATDGRHTYYYWGQGTQVTVSS”: the “polyreactivity (PSR sort gate)” value is “high polyreactivity”.
Take “QVQLVESGGGLVQAGGSLRLSCAASGFIFSWNDLGWYRQATGKERELVAAITSGTGSTYYADSVKGRFTISRDNAKNTVYLQMNSLKPEDTAVYYCAAGTNYGKLRIRFDYWGQGTQVTVSS”: the “polyreactivity (PSR sort gate)” value is listed as “low polyreactivity”.
Turning to “QVQLVESGGGLVQAGGSLRLSCAASGRIFSWYAMGWYRQAPGKERELVAAISWRGGSTYYADSVKGRFTISRDNAKNTVYLQMNSLKPEDTAVYYCIGGPGGYDYWGHGTQVTVSS”, the “polyreactivity (PSR sort gate)” value is reported as “low polyreactivity”.
In the case of “QVQLVESGGGLVQAGGSLRLTCAASGRISGYNMGWYRQAPGKERELVAGIDYSGGSTYYADSVKGRFTISRDNAKYNVSLQMTSLKPEDTAVYDCNAVYARKYYYSHGYDYWGQGTQVTVSS”, the “polyreactivity (PSR sort gate)” value is given as “high polyreactivity”.
The value for “QVQLVESGGGLVQAGGSLRLSCAASGLTFGYYAMGWYRQAPGKERELVAAISRGSSTYYADSVKGRFTISRDNAKNTVYLQMNSLKPEDTAVYYCNALFSYGYWRVRYIVTQYDYWGQGTQVTVSS” was “high polyreactivity”; that for “QVQLVESRGGLVQAGGSLRLSCAASGFIFGFYALGWYRQEPGTEMELVAAITWDGGSTYYADSVKGRFTISRDNAKNTVYLQMNSLKPEDTAVYYCAAYFQYQDVDYDYWGQGTQVTVSS” was “high polyreactivity”.
Consider “QVQHVESGGGLVQAGGSLRLTCAASGSTSPTNVMGWYRQAPGKERELVAAISYSGGRTYYADSVKGRFTISRDNAKKTVYLQMNSLKPEDTAVYYCAARSLKRKYESWGQGTQVTVSS”, for which the “polyreactivity (PSR sort gate)” value is recorded as “high polyreactivity”.
On to “QVQLVESAGGLVQAGGSLRLSCAASGRTFCGNAMGWYRQAPGKERELVAAITSGGSTYYADSVKGRFTISRDNAKNTVYLQMNSLKPEDTAVYYCATRRIYKWYRYYYWGQGTQVTVSS”, for which the “polyreactivity (PSR sort gate)” value is reported as “high polyreactivity”.
Turning to “QVQLVESGGGLVQAGGSLRLSCAASGFIFRYYAMGWYRQAPGKERELVAAISGSGGGTYYADSVKGRFTISRDNAKNTVYLQMNSLKPEDTAVYYCAAGSTSGYFRYYYWGQGSQVTVSS”, the “polyreactivity (PSR sort gate)” value was “high polyreactivity”.
Consider “QVQLVESGGGLVQAGGRLRLSCAAAGSTFDGNAMGWYRQAPGKERELVADIDSIGGSTYYADSVKGRFTISRDNAKNTVYLQMNSLKPEDTAVYYCADRRFDTALVLYDYWGQGTQVTVSS”, for which the “polyreactivity (PSR sort gate)” value was “low polyreactivity”.
The value for “QVQLVESGGCLVQAGGSLRFSCAASGLTLFRYAMGWYRQAPGKERELVAAIDYGGGTYYADSVKGRFRISRDNAKNTVYLQMNSLKPEDTAVYYCAVEPEYKYYEGDYWGQGTQVNVSS” was “low polyreactivity”; that for “QVQLVESGGGLVQAGGSLRLSCAASGRTFGPYAMGWYRQAPGKERELVAAISSSGSTTYYADSVKGRFTISRDNAKNTVYLQMNSLKPEDTAVYYCAKPSSRDSPYDYWGQGTQVTVSS” was “low polyreactivity”.
Turning to “QVQHVESGGGLVQAGGSLRLSCAASGRTSYTNAMGWSRPAPGKERELVAAINYSGGSTYYADSVKGRYTISRDNAKNTVYLQMNSLKPEDTAVYYCAAERYYWYTEMGYWGQGTQVTVSS”, the “polyreactivity (PSR sort gate)” value is on record as “high polyreactivity”.
As for “QVQLVESGGGLVQAGGSLRLSCAASGSTFAYYAMGWYSPAPGKERELVAAISSSGGRTYYADSVKGRFTISRDNAKNTVYLQMYSLKPEDTAVYYCAARSPYYSASVRYDYWGQGTQVTVSS”, the “polyreactivity (PSR sort gate)” value is on record as “high polyreactivity”.
The value for “QVQLVESGGGLVQAGGSLRLSCAASGFTFAYYDMGWYRQAPGKERELVAAISQSGGSTYYADSVKGRFTISRDNAKNTVYLQMKSLKPEDTAVYYCNAYAYTQSYEYDYWGQGTQVTVSS” was “high polyreactivity”; that for “QVQLVESGGGLVQAGGSLRLSCAASGSIFKWYTMGWYRQAPGKERELVAAITWGGGSTYYADSVKGRFTISRDNAKNTVYLQMNSLKPEDTAVYYCNAEYVVADYGYYTIEFDYWGQGTQVTVSS” was “low polyreactivity”; that for “QVQLVESGGGLVQAGGSLRLSCAASGLTFPLYVMGWYRQAPGKARELVATITGGGSTTYADSVKGRFTISRDNAKNTVYFQMNSLKPEDTAVYYCAADFVFVATPLRYDYWGPGTQVTVSS” was “low polyreactivity”.
On to “QFQLVESGGCLVQAGGSLRLSCAASGFTFGYNAMGWYRQAPGKERELVAVITQSGGRTYYADSVKGRFTISRDNAKYTVYVQMNSLKPEDTAVYYCADRYRLPPYYYWGQGSQVTVSS”, for which the “polyreactivity (PSR sort gate)” value is recorded as “high polyreactivity”.
With “QVQLVESGGGLVQAGGSLRLSCAASGGTFYLYAMGWYRQAPGKERELVAAISRSGGITYYADSVKGRFTISRDNAKNTVYLQMNSLKPEDTAVYYCDAAALSRYRLQEGYYWGQGTQVTVSS”, the “polyreactivity (PSR sort gate)” value is recorded as “high polyreactivity”.
Then “QVQLVESGGGLVQAGGSLRLSCAASGSIFQRNAIGWSRQAPGKERELVAAITTTGGITHYADSVKGRFTISRDNAKNTVYLQMNSLKPEDTAVYYCAASNEVPWRFPDDYWGQGTQVTVSS”, with “low polyreactivity”; and “QVQLVESGGGLVQAGGSLRLSCAASGRIFGYTMGWYRQAPGKERELVAAISKSGGSTYYADSVKGRFTISRDNAKNTVYLQMNSLIPEDTAVYVCNKPQRILYDYWGQGSQVTVSS”, with “high polyreactivity”.
Consider “QVQLVESGGGLVQAGGSLRLSCAASGFIFYYYAMGWYRQAPGKERELVAGIDKTGGSTYYADSVKGRFTISRDNAKNPVYLQMNSLKPDDTAVYYCNAPYYRGGKDGYWGQGTQVTVSS”, for which the “polyreactivity (PSR sort gate)” value was “high polyreactivity”.
On to “QVQLVESGGGLVQAGGSIRLSCAASGRIFGRYAMGWYRQAPGKEMELVATITWRGGITYYADSVKGRFTISRDNAKNTVYLQLKRLKPEDNAVYYCAAGYGRIPYEYWGQGTQVTVSS”, for which the “polyreactivity (PSR sort gate)” value is reported as “high polyreactivity”.
Turning to “QGQHVESGGGLVQAGGSLRLSSAASGITISYYGMGWYRQERGKDRELVASITKRGGRTYYADSVKGRFTISRDNAKNTVYLQMNSLKPEETAVYYCAADRAAPRYDYWGQGTQVTVSS”, the “polyreactivity (PSR sort gate)” value is “high polyreactivity”.
Take “QVQLVESGGGLVQAGGSLRLSCAASGSICDRNAMGWYRQAPGKERELVANITWSGVSTYYADSVKGRFTMSRDNAKNTVYLQMNSLKPDDTAVYYCNADYSYRHWYDPGQYGQAMGYWGQGTQVTVSS”: the “polyreactivity (PSR sort gate)” value is “low polyreactivity”.
Take “QVQLVESGVGLVQAGGSLRISCAASGSTFAAKSMGWYRQAPGKEREWVAVIRRGGSTTYADSVKGRFTISRDNAKNTVYLQMNSLKPEATAVYYCAASLYGKGDYWGQGTQVTVSS”: the “polyreactivity (PSR sort gate)” value was “high polyreactivity”.
Then “QVQLVESGGCIVQAGGSLRLSCAASGRIFKLYAMGWYRQAPGKERELVAAITTSGGSTYYADSVKGRFTISRDNAKNTVSLEMNSLIPEDTAGYYCNARAVRYPFTGNYWGQGTQVTVSS”, with “high polyreactivity”.
Then “QVQLVESGGGLVQAGGRLRLSCAASGRTIVQNAMVWYRHDPGKERALVAAITSSGGRTYYADSVKGRFTISRDNAKNTVYLQMNSLKPEDTAVYYGAVTLRRGYDYWGQGTQVTVSS”, with “high polyreactivity”; and “QVQLVESGGGLVQAGGSLRLSCAASGITFDWNAMGWYRQAPGKEREFVASISRGSGGTYYADSVKGRFTISRDNAKNTVYLQMNSLKPEDTAVYYCAAAVGNTDREYDYWGQGTQVTVSS”, with “low polyreactivity”; and “QVQLVESGGGLVQAGGSLRLSCAASGRIFVPYVMGWYRQAPGKERELVAAISSSGGSTYYADSVKGRFTISRDNAKNTVYLQMNSLKQEDTAVYYCAKPYYFHEEDHWGQGSQVTVSS”, with “low polyreactivity”.
For “QVQLVESGGGLVQAGGSLRLSCAASGSIFGYNTMGLYRKAPGKERELVAAISYRGGSTYADSVKGRFTISRDNAKNTVYLQMNSLKPVDTAVYYCDKRSIVGYRYSGYDYCGQGTQVTVSS”, the “polyreactivity (PSR sort gate)” value is given as “high polyreactivity”.
